We go through 38 variants from the RNAGym collection of RNA variant scans (doi:10.7554/elife.80360).

Sequences and labels used below:
B1: Hairpin Ribozyme (parent)
chain: GUCCUCUUUCACGUGCGCGUGAAAGAGAGAAGUGAACCAGAGAAACACACGUUGUGGUAUAUUACCUGGUA

The variants in this data set derive from B1. As to the kind of experiment: self-cleavage, relative activity (ratio to wild type); higher = more cleavage; co-transcriptional.
With GUCCUCUUUAACGUGCGCGUGAAAGAGAGAAGUGAACAAGAGAAACACACGUUGUGGUAUAUUACCUGGUA [C10A C38A], the self-cleavage was determined as 0.171.

For the variant GUCCUCUUGCACGGGCGCGUGAAAGAGAGAAGUGAACCAGAGAAACACACGUUGUGGUAUAUUACCUGGUA [U9G U14G], the self-cleavage worked out at 0.597.

In the case of GUCCUCUUUAACGUGCGCGUGAAAGAGAGAAGUGAACCAGAGAAACACACGUUGUGGUAUAUUAUCUGGUA [C10A C65U], the self-cleavage is 0.274.

On to GUCCUCUUUAACGUGCGCGUGAAAGAGAGAAGUGAACCAGAGAAACACACGUUGUGGUUUAUUACCUGGUA [C10A A59U], for which the self-cleavage stood at 0.234.

For GUCCUCUUUAACGUGCGCGUGAAAGAGAGAAGUGAACCAGAGAAACUCACGUUGUGGUAUAUUACCUGGUA [C10A A47U], the self-cleavage was determined as 0.177.

Regarding GUCCUCUUGCACGUGCGCGUGAAAGAGAGAAGUGAACCAGAGAAACACACGUUGUGGUAUAGUACCUGGUA [U9G U62G], the self-cleavage was found to be 0.154.

For GUCCUCUUGCACGUGCGCGUGAAAGAGAGAAGUGAACCAGAGAAACACACGUUAUGGUAUAUUACCUGGUA [U9G G54A], the self-cleavage came to 0.418.

For GUCCUCUUGCACGUGCGCGUGAAAGAGAGAAGUGAACCAGAUAAACACACGUUGUGGUAUAUUACCUGGUA [U9G G42U], the self-cleavage is 0.364.

For GUCCUCUUUAACGUGCGCGUGAAAGAGAGAAGUGAACCAGAGAAACACAGGUUGUGGUAUAUUACCUGGUA [C10A C50G], the self-cleavage was determined as 0.352.

GUCCUCUUUAACGUGCGCGUGAAAGAGAGAAGUGAACCAGAGAAACACAAGUUGUGGUAUAUUACCUGGUA [C10A C50A]: the self-cleavage amounted to 0.255.

For the variant GUCCUCUUUAACGUGCGCGUGAAAGAGAGAAGUGGACCAGAGAAACACACGUUGUGGUAUAUUACCUGGUA [C10A A35G], the self-cleavage is 0.63.

Turning to GUCCUCUUUAACGUGCGCGUGAAAGAGAGAAGUGUACCAGAGAAACACACGUUGUGGUAUAUUACCUGGUA [C10A A35U], the self-cleavage stood at 0.56.

For the variant GUCCUCUUUAACGUGCGCGUGACAGAGAGAAGUGAACCAGAGAAACACACGUUGUGGUAUAUUACCUGGUA [C10A A23C], the self-cleavage was 0.657.

As to GUCCUCUUUAACGUGCGCGUGAAAGAGAGAAGCGAACCAGAGAAACACACGUUGUGGUAUAUUACCUGGUA [C10A U33C], the self-cleavage stood at 0.174.

Regarding GUCCUCUUUAACGUGCGCGUGAAAGAGAGAAGUGAACCAGAGAAACACACGUGGUGGUAUAUUACCUGGUA [C10A U53G], the self-cleavage stood at 0.514.

Turning to GUCCUCUUUAACGUGCGCGUGAAAGAGAGAAGUGAACCAGAGAAACACACGUUGUGGUAUCUUACCUGGUA [C10A A61C], the self-cleavage worked out at 0.18.

GUCCUCUUUAACGUGCGCGUGAAAGAGAGAAGUGAACCAGAGAAACACACGUUGUGGUAUUUUACCUGGUA [C10A A61U]: the self-cleavage amounted to 0.194.

With GUCCUCUUUAACGUGCGCGGGAAAGAGAGAAGUGAACCAGAGAAACACACGUUGUGGUAUAUUACCUGGUA [C10A U20G], the self-cleavage was 0.663.

As for GUCCUCUUGCACGUGCGCGUGAAAGAGAGAAGUGAACCAGAGAAACACACGUUGUGGUAUAUUACCCGGUA [U9G U67C], the self-cleavage came to 0.188.

As for GUCCUCUUUGACGUGCGCGUGUAAGAGAGAAGUGAACCAGAGAAACACACGUUGUGGUAUAUUACCUGGUA [C10G A22U], the self-cleavage turned out to be 0.661.

Take GUCCUCUUGCACGUGCGCGUGAAAGAGAGAAGUGAACCAGAGAAACACACGUUGUGGCAUAUUACCUGGUA [U9G U58C]: the self-cleavage came out at 0.794.

Take GUCCUCUUGCACGUGCGCGUGAAAGAGAGAAGUGAACCAGAGAAACACACGUUGUGGGAUAUUACCUGGUA [U9G U58G]: the self-cleavage was determined as 0.579.

Take GUCCUCUUUAACGUGCGCGUGAAAGAGAGAAGUGACCCAGAGAAACACACGUUGUGGUAUAUUACCUGGUA [C10A A36C]: the self-cleavage is 0.528.

Regarding GUCCUCUUUAACGUGCGCGUGAAAGAGAGAAGUCAACCAGAGAAACACACGUUGUGGUAUAUUACCUGGUA [C10A G34C], the self-cleavage was 0.942.

Regarding GUCCUCUUUAACGUGCGCGUGAAAGAAAGAAGUGAACCAGAGAAACACACGUUGUGGUAUAUUACCUGGUA [C10A G27A], the self-cleavage worked out at 0.35.

Consider GUCCUCUUUAACGUGCGCGUGAAAGAUAGAAGUGAACCAGAGAAACACACGUUGUGGUAUAUUACCUGGUA [C10A G27U], for which the self-cleavage was 0.233.

As for GUCCUCUUUAACGUGCGCGUGAAAGAGAGAAGUGAACCAGAGAAACACCCGUUGUGGUAUAUUACCUGGUA [C10A A49C], the self-cleavage is 0.223.

With GUCCUCUUUAACGUGCACGUGAAAGAGAGAAGUGAACCAGAGAAACACACGUUGUGGUAUAUUACCUGGUA [C10A G17A], the self-cleavage was 0.622.

GUCCUCUUUAACGUGCGCGUUAAAGAGAGAAGUGAACCAGAGAAACACACGUUGUGGUAUAUUACCUGGUA [C10A G21U]: the self-cleavage came to 0.939.

Take GUCCUCUUGCACGUGCGCGGGAAAGAGAGAAGUGAACCAGAGAAACACACGUUGUGGUAUAUUACCUGGUA [U9G U20G]: the self-cleavage came to 0.333.

GUCCUCUUGCACGUGCGCGUGAAAGAGAGAAGUGAACCAGAGAAACACACGUUGCGGUAUAUUACCUGGUA [U9G U55C]: the self-cleavage came out at 0.163.

Regarding GUCCUCUUUAACGUGCGCGUGAAAGAGACAAGUGAACCAGAGAAACACACGUUGUGGUAUAUUACCUGGUA [C10A G29C], the self-cleavage was 0.16.

On to GUCCUCUUUAACGUGCGCGUGAAAGAGAUAAGUGAACCAGAGAAACACACGUUGUGGUAUAUUACCUGGUA [C10A G29U], for which the self-cleavage was 0.0922.

On to GUCCUCUUUAACGUGCGCGUGAAAGAGAGAAGUGAACCAGAGAAACACACGUUGUGGUAUAUAACCUGGUA [C10A U63A], for which the self-cleavage was found to be 0.118.

For the variant GUCCUCUUGCACGUGCGCGUGAAAGAGAGAAGUGAACCAGAGAAACACACGUUGUGGUAGAUUACCUGGUA [U9G U60G], the self-cleavage was 0.322.

For GUCCUCUUUAACGUGCGCGUGAAAGAGAGAAGUGAACCAGAGAAACACACGUUGUGGUAUAUUACCUGGUU [C10A A71U], the self-cleavage amounted to 0.557.

For the variant GUCCUCUUUAACGUGCGCGUGAAAGAGCGAAGUGAACCAGAGAAACACACGUUGUGGUAUAUUACCUGGUA [C10A A28C], the self-cleavage is 0.251.

As to GUCCUCUUUAACGUGCGCGUGAAAGAGAGAAGUGAACCAGAGAAACACACGUUGUGGCAUAUUACCUGGUA [C10A U58C], the self-cleavage worked out at 0.858.
